Experimental data taken from patent US20140087995A1 (published 2014).
Numbered stars: 1 amine (or outer) side, 2 acyl side, 3 side chain; on linkers, the order of the positions; unused ones are H or OH. Bridge positions count the residues as written; N and C are the ends. Side chains are listed from the residue outwards. Ends that are not written are not given here. * marks the point of attachment. C20 diacid = O=C(O)CCCCCCCCCCCCCCCCCCC(=O)*; γGlu = O=C(O)[C@H](CCC(=O)[*:2])N[*:1]; AEEA = NCCOCCOCC(=O)O

T1: human amylin receptor (amylin 3(a) receptor: human calcitonin receptor co-expressed with RAMP-3) (human, UniProt P30988 25-474; O60896 24-148, limits assumed)
T1 sequence (looked up) 1: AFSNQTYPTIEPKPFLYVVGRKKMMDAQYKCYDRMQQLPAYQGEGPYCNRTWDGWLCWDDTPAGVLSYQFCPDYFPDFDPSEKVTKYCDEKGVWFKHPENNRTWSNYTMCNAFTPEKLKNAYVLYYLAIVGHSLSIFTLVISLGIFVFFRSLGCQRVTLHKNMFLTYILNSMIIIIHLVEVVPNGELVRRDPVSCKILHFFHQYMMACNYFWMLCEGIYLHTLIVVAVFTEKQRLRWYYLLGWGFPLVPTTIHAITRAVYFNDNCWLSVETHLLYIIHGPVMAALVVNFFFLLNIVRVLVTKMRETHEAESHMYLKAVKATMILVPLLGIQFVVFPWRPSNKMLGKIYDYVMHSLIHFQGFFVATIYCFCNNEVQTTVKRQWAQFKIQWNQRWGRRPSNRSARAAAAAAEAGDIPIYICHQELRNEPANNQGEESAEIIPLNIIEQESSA
T1 sequence (looked up) 2: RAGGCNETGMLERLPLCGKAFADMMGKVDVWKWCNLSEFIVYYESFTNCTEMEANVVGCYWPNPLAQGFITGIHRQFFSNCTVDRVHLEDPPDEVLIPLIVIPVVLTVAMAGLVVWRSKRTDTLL

T2: human calcitonin receptor (human, UniProt P30988 25-474)
T2 sequence (looked up): T1 sequence (looked up) 1

B1: N^ε1-[2-[2-[2-[[(4S)-4-carboxy-4-(19-carboxynonadecanoylamino)butanoyl]amino]ethoxy]ethoxy]acetyl]-[His14,Arg17,Pro21,Pro27,His34]-h-amylin (peptide)
peptide: K([AEEA-γGlu-C20 diacid])CNTATCATQRLAHFLRHSSPNFGAIPSSTNVGHNTY-NH2
modifications: disulfide 2-7; N-terminus assumed
SMILES: CC[C@H](C)[C@H](NC(=O)[C@H](C)NC(=O)CNC(=O)[C@H](Cc1ccccc1)NC(=O)[C@H](CC(N)=O)NC(=O)[C@@H]1CCCN1C(=O)[C@H](CO)NC(=O)[C@H](CO)NC(=O)[C@H](Cc1c[nH]cn1)NC(=O)[C@H](CCCNC(=N)N)NC(=O)[C@H](CC(C)C)NC(=O)[C@H](Cc1ccccc1)NC(=O)[C@H](Cc1c[nH]cn1)NC(=O)[C@H](C)NC(=O)[C@H](CC(C)C)NC(=O)[C@H](CCCNC(=N)N)NC(=O)[C@H](CCC(N)=O)NC(=O)[C@@H](NC(=O)[C@H](C)NC(=O)[C@@H]1CSSC[C@H](NC(=O)[C@@H](N)CCCCNC(=O)COCCOCCNC(=O)CC[C@H](NC(=O)CCCCCCCCCCCCCCCCCCC(=O)O)C(=O)O)C(=O)N[C@@H](CC(N)=O)C(=O)N[C@@H]([C@@H](C)O)C(=O)N[C@@H](C)C(=O)N[C@@H]([C@@H](C)O)C(=O)N1)[C@@H](C)O)C(=O)N1CCC[C@H]1C(=O)N[C@@H](CO)C(=O)N[C@@H](CO)C(=O)N[C@H](C(=O)N[C@@H](CC(N)=O)C(=O)N[C@H](C(=O)NCC(=O)N[C@@H](Cc1c[nH]cn1)C(=O)N[C@@H](CC(N)=O)C(=O)N[C@H](C(=O)N[C@@H](Cc1ccc(O)cc1)C(N)=O)[C@@H](C)O)C(C)C)[C@@H](C)O
notes: also called compound 80
B2: N^ε1-[2-[2-[2-[[(4S)-4-carboxy-4-(19-carboxynonadecanoylamino)butanoyl]amino]ethoxy]ethoxy]acetyl]-[Thr14,Arg17,Pro21,Pro27,Pro31]-h-amylin (peptide)
peptide: K([AEEA-γGlu-C20 diacid])CNTATCATQRLATFLRHSSPNFGAIPSSTPVGSNTY-NH2
modifications: disulfide 2-7; N-terminus assumed
SMILES: CC[C@H](C)[C@H](NC(=O)[C@H](C)NC(=O)CNC(=O)[C@H](Cc1ccccc1)NC(=O)[C@H](CC(N)=O)NC(=O)[C@@H]1CCCN1C(=O)[C@H](CO)NC(=O)[C@H](CO)NC(=O)[C@H](Cc1c[nH]cn1)NC(=O)[C@H](CCCNC(=N)N)NC(=O)[C@H](CC(C)C)NC(=O)[C@H](Cc1ccccc1)NC(=O)[C@@H](NC(=O)[C@H](C)NC(=O)[C@H](CC(C)C)NC(=O)[C@H](CCCNC(=N)N)NC(=O)[C@H](CCC(N)=O)NC(=O)[C@@H](NC(=O)[C@H](C)NC(=O)[C@@H]1CSSC[C@H](NC(=O)[C@@H](N)CCCCNC(=O)COCCOCCNC(=O)CC[C@H](NC(=O)CCCCCCCCCCCCCCCCCCC(=O)O)C(=O)O)C(=O)N[C@@H](CC(N)=O)C(=O)N[C@@H]([C@@H](C)O)C(=O)N[C@@H](C)C(=O)N[C@@H]([C@@H](C)O)C(=O)N1)[C@@H](C)O)[C@@H](C)O)C(=O)N1CCC[C@H]1C(=O)N[C@@H](CO)C(=O)N[C@@H](CO)C(=O)N[C@H](C(=O)N1CCC[C@H]1C(=O)N[C@H](C(=O)NCC(=O)N[C@@H](CO)C(=O)N[C@@H](CC(N)=O)C(=O)N[C@H](C(=O)N[C@@H](Cc1ccc(O)cc1)C(N)=O)[C@@H](C)O)C(C)C)[C@@H](C)O
notes: also called compound 75
B3: N^ε1-[2-[2-[2-[[(4S)-4-carboxy-4-(19-carboxynonadecanoylamino)butanoyl]amino]ethoxy]ethoxy]acetyl]-[Lys14,Arg17,Pro21,Pro27,Pro31]-h-amylin (peptide)
peptide: K([AEEA-γGlu-C20 diacid])CNTATCATQRLAKFLRHSSPNFGAIPSSTPVGSNTY-NH2
modifications: disulfide 2-7; N-terminus assumed
SMILES: CC[C@H](C)[C@H](NC(=O)[C@H](C)NC(=O)CNC(=O)[C@H](Cc1ccccc1)NC(=O)[C@H](CC(N)=O)NC(=O)[C@@H]1CCCN1C(=O)[C@H](CO)NC(=O)[C@H](CO)NC(=O)[C@H](Cc1c[nH]cn1)NC(=O)[C@H](CCCNC(=N)N)NC(=O)[C@H](CC(C)C)NC(=O)[C@H](Cc1ccccc1)NC(=O)[C@H](CCCCN)NC(=O)[C@H](C)NC(=O)[C@H](CC(C)C)NC(=O)[C@H](CCCNC(=N)N)NC(=O)[C@H](CCC(N)=O)NC(=O)[C@@H](NC(=O)[C@H](C)NC(=O)[C@@H]1CSSC[C@H](NC(=O)[C@@H](N)CCCCNC(=O)COCCOCCNC(=O)CC[C@H](NC(=O)CCCCCCCCCCCCCCCCCCC(=O)O)C(=O)O)C(=O)N[C@@H](CC(N)=O)C(=O)N[C@@H]([C@@H](C)O)C(=O)N[C@@H](C)C(=O)N[C@@H]([C@@H](C)O)C(=O)N1)[C@@H](C)O)C(=O)N1CCC[C@H]1C(=O)N[C@@H](CO)C(=O)N[C@@H](CO)C(=O)N[C@H](C(=O)N1CCC[C@H]1C(=O)N[C@H](C(=O)NCC(=O)N[C@@H](CO)C(=O)N[C@@H](CC(N)=O)C(=O)N[C@H](C(=O)N[C@@H](Cc1ccc(O)cc1)C(N)=O)[C@@H](C)O)C(C)C)[C@@H](C)O
notes: also called compound 74
B4: N^ε1-[2-[2-[2-[[(4S)-4-carboxy-4-(19-carboxynonadecanoylamino)butanoyl]amino]ethoxy]ethoxy]acetyl]-[His14,Arg17,Pro21,Pro27,Pro34]-h-amylin (peptide)
peptide: K([AEEA-γGlu-C20 diacid])CNTATCATQRLAHFLRHSSPNFGAIPSSTNVGPNTY-NH2
modifications: disulfide 2-7; N-terminus assumed
SMILES: CC[C@H](C)[C@H](NC(=O)[C@H](C)NC(=O)CNC(=O)[C@H](Cc1ccccc1)NC(=O)[C@H](CC(N)=O)NC(=O)[C@@H]1CCCN1C(=O)[C@H](CO)NC(=O)[C@H](CO)NC(=O)[C@H](Cc1c[nH]cn1)NC(=O)[C@H](CCCNC(=N)N)NC(=O)[C@H](CC(C)C)NC(=O)[C@H](Cc1ccccc1)NC(=O)[C@H](Cc1c[nH]cn1)NC(=O)[C@H](C)NC(=O)[C@H](CC(C)C)NC(=O)[C@H](CCCNC(=N)N)NC(=O)[C@H](CCC(N)=O)NC(=O)[C@@H](NC(=O)[C@H](C)NC(=O)[C@@H]1CSSC[C@H](NC(=O)[C@@H](N)CCCCNC(=O)COCCOCCNC(=O)CC[C@H](NC(=O)CCCCCCCCCCCCCCCCCCC(=O)O)C(=O)O)C(=O)N[C@@H](CC(N)=O)C(=O)N[C@@H]([C@@H](C)O)C(=O)N[C@@H](C)C(=O)N[C@@H]([C@@H](C)O)C(=O)N1)[C@@H](C)O)C(=O)N1CCC[C@H]1C(=O)N[C@@H](CO)C(=O)N[C@@H](CO)C(=O)N[C@H](C(=O)N[C@@H](CC(N)=O)C(=O)N[C@H](C(=O)NCC(=O)N1CCC[C@H]1C(=O)N[C@@H](CC(N)=O)C(=O)N[C@H](C(=O)N[C@@H](Cc1ccc(O)cc1)C(N)=O)[C@@H](C)O)C(C)C)[C@@H](C)O
notes: also called compound 68
B5: N^ε1-[2-[2-[2-[[(4S)-4-carboxy-4-(19-carboxynonadecanoylamino)butanoyl]amino]ethoxy]ethoxy]acetyl]-[His14,Arg17,Pro21,Pro27,Pro31]-h-amylin (peptide)
peptide: K([AEEA-γGlu-C20 diacid])CNTATCATQRLAHFLRHSSPNFGAIPSSTPVGSNTY-NH2
modifications: disulfide 2-7; N-terminus assumed
SMILES: CC[C@H](C)[C@H](NC(=O)[C@H](C)NC(=O)CNC(=O)[C@H](Cc1ccccc1)NC(=O)[C@H](CC(N)=O)NC(=O)[C@@H]1CCCN1C(=O)[C@H](CO)NC(=O)[C@H](CO)NC(=O)[C@H](Cc1c[nH]cn1)NC(=O)[C@H](CCCNC(=N)N)NC(=O)[C@H](CC(C)C)NC(=O)[C@H](Cc1ccccc1)NC(=O)[C@H](Cc1c[nH]cn1)NC(=O)[C@H](C)NC(=O)[C@H](CC(C)C)NC(=O)[C@H](CCCNC(=N)N)NC(=O)[C@H](CCC(N)=O)NC(=O)[C@@H](NC(=O)[C@H](C)NC(=O)[C@@H]1CSSC[C@H](NC(=O)[C@@H](N)CCCCNC(=O)COCCOCCNC(=O)CC[C@H](NC(=O)CCCCCCCCCCCCCCCCCCC(=O)O)C(=O)O)C(=O)N[C@@H](CC(N)=O)C(=O)N[C@@H]([C@@H](C)O)C(=O)N[C@@H](C)C(=O)N[C@@H]([C@@H](C)O)C(=O)N1)[C@@H](C)O)C(=O)N1CCC[C@H]1C(=O)N[C@@H](CO)C(=O)N[C@@H](CO)C(=O)N[C@H](C(=O)N1CCC[C@H]1C(=O)N[C@H](C(=O)NCC(=O)N[C@@H](CO)C(=O)N[C@@H](CC(N)=O)C(=O)N[C@H](C(=O)N[C@@H](Cc1ccc(O)cc1)C(N)=O)[C@@H](C)O)C(C)C)[C@@H](C)O
notes: also called compound 61
B6: N^ε1-[2-[2-[2-[[(4S)-4-carboxy-4-(19-carboxynonadecanoylamino)butanoyl]amino]ethoxy]ethoxy]acetyl]-[Ser14,Arg17,Pro21,Pro27,Pro31]-h-amylin (peptide)
peptide: K([AEEA-γGlu-C20 diacid])CNTATCATQRLASFLRHSSPNFGAIPSSTPVGSNTY-NH2
modifications: disulfide 2-7; N-terminus assumed
SMILES: CC[C@H](C)[C@H](NC(=O)[C@H](C)NC(=O)CNC(=O)[C@H](Cc1ccccc1)NC(=O)[C@H](CC(N)=O)NC(=O)[C@@H]1CCCN1C(=O)[C@H](CO)NC(=O)[C@H](CO)NC(=O)[C@H](Cc1c[nH]cn1)NC(=O)[C@H](CCCNC(=N)N)NC(=O)[C@H](CC(C)C)NC(=O)[C@H](Cc1ccccc1)NC(=O)[C@H](CO)NC(=O)[C@H](C)NC(=O)[C@H](CC(C)C)NC(=O)[C@H](CCCNC(=N)N)NC(=O)[C@H](CCC(N)=O)NC(=O)[C@@H](NC(=O)[C@H](C)NC(=O)[C@@H]1CSSC[C@H](NC(=O)[C@@H](N)CCCCNC(=O)COCCOCCNC(=O)CC[C@H](NC(=O)CCCCCCCCCCCCCCCCCCC(=O)O)C(=O)O)C(=O)N[C@@H](CC(N)=O)C(=O)N[C@@H]([C@@H](C)O)C(=O)N[C@@H](C)C(=O)N[C@@H]([C@@H](C)O)C(=O)N1)[C@@H](C)O)C(=O)N1CCC[C@H]1C(=O)N[C@@H](CO)C(=O)N[C@@H](CO)C(=O)N[C@H](C(=O)N1CCC[C@H]1C(=O)N[C@H](C(=O)NCC(=O)N[C@@H](CO)C(=O)N[C@@H](CC(N)=O)C(=O)N[C@H](C(=O)N[C@@H](Cc1ccc(O)cc1)C(N)=O)[C@@H](C)O)C(C)C)[C@@H](C)O
notes: also called compound 73

Key:
[1] = target: T1, human amylin receptor (amylin 3(a) …); assay: cell-based or functional assay
[2] = target: T2, human calcitonin receptor; assay: cell-based or functional assay

hAmylin-R funct. EC50 [1] [pM]	hCTR funct. EC50 [2] [pM]	Binder
139	2140	B1
296	9070	B2
666	37500	B3
54	932	B4
51	554	B5
85	961	B6
